Experimental findings from patent US20190169638 are described below.

Data set [1] relates to Sleeping Beauty transposase SB10 (synthetic (Sleeping Beauty, reconstructed salmonid Tc1/mariner)?). Kind of data set: cell_activity. The settings on record: transposition in HeLa.
Data set [2] has as its system Sleeping Beauty transposase N123 (PAIRED DNA-binding domain, PAI+RED) (synthetic (Sleeping Beauty, reconstructed salmonid Tc1/mariner)?). Kind of data set: EMSA. The settings on record: reference for CAST sequences. In general terms: Mobility shift assays separate free from complexed probe on a gel.

“GTACATACACGCGCACTTCTGACCCACTGG (double strand) [pT/neo transposon with CAST-5/wt hybrid inner DRs]” displayed an activity (% of wild-type transposon) in data set [1] of 130.

As for “ACATACACTTAAGTGTATGTAAACTTCCGACTTCAACTTGG / GACTCCAAGTTGAAGTCGGAAGTTTACATACACTTAAGTGTATGT [14DR (outer DR) probe]”, the binding signal in data set [2] was 1 fold.

“GTGACGACCCCAAGTGTACATACACGCGCC (double strand) [pT/neo transposon with all four DRs CAST-5]” registered an activity (% of wild-type transposon) in data set [1] of 2.2.

In turn, “GTGACGACCCCAAGTGTACATACACGCGCC (double strand) [pT/neo transposon with 14DRs replaced by CAST-5]” gave an activity (% of wild-type transposon) in data set [1] of 3.

The sequence “GTGACGACCCCAAGTGTACATACACGCGCC (double strand) [pT/neo transposon with 12DRs replaced by CAST-5]” yielded an activity (% of wild-type transposon) in data set [1] of 65.
